# Measured values reported in article PMC3460625 (PLoS Pathogens, 2012).
# T1: Nup98 (endogenous) (human (endogenous in HEK 293 and HeLa), UniProt P52948 1-880)
# T1 construct: also called nucleoporin Nup98
# T1 sequence (looked up): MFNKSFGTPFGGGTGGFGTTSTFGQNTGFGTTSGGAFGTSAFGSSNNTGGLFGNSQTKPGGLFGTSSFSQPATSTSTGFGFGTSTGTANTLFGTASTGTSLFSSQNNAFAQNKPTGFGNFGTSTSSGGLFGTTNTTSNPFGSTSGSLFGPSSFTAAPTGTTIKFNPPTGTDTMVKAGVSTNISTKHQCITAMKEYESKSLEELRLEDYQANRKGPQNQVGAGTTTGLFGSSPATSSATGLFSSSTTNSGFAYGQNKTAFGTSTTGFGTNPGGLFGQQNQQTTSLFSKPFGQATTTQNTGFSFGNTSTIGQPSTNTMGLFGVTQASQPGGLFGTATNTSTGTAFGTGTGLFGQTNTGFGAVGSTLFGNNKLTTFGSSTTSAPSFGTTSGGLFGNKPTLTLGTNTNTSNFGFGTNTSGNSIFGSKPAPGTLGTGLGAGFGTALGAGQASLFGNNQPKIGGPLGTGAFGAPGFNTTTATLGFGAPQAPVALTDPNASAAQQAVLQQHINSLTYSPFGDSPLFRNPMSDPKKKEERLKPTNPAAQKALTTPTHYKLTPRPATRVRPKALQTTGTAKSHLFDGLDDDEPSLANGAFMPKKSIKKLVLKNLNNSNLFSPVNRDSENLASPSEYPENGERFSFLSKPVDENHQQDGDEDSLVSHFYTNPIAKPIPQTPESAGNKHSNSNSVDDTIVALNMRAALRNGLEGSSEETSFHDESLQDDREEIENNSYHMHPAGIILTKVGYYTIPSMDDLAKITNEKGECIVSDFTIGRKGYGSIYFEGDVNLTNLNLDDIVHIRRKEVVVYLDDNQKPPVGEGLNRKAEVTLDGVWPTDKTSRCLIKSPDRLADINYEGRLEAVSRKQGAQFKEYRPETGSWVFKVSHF
# B1: Rae1 (endogenous) (natural protein, human (endogenous in HEK 293 and HeLa), UniProt P78406 1-368, looked up)
# chain: MSLFGTTSGFGTSGTSMFGSATTDNHNPMKDIEVTSSPDDSIGCLSFSPPTLPGNFLIAGSWANDVRCWEVQDSGQTIPKAQQMHTGPVLDVCWSDDGSKVFTASCDKTAKMWDLSSNQAIQIAQHDAPVKTIHWIKAPNYSCVMTGSWDKTLKFWDTRSSNPMMVLQLPERCYCADVIYPMAVVATAERGLIVYQLENQPSEFRRIESPLKHQHRCVAIFKDKQNKPTGFALGSIEGRVAIHYINPPNPAKDNFTFKCHRSNGTNTSAPQDIYAVNGIAFHPVHGTLATVGSDGRFSFWDKDARTKLKTSEQLDQPISACCFNHNGNIFAYASSYDWSKGHEFYNPQKKNYIFLRNAAEELKPRNKK
# notes: also called host Rae1; cellular Rae1
# Target: T1, Nup98 (endogenous)
# Assay: SEC + other: sucrose gradient sedimentation
# Settings: partners not purified
binder,measurement,value
B1,stoichiometry N,1
